Data published in patent US12723255B2, “Herbicide tolerance genes and methods of use thereof” (priority 2014, dated 2026).

Assays:
[1] = enzyme activity assay at 23° C. with purified enzyme; type: biochemical
Procedure: The enzyme activity of MON-HT protein variants with haloxyfop, fenoxaprop, fluazifop, and dichlorprop as substrates was determined using the enzyme activity assay conducted at 23° C. with purified enzyme. The activity was recorded as the maximum activity as a percentage of the wild-type enzyme's activity, which was set at 100%.

[2] = test system: F1 hybrid maize plants; assay: efficacy field trial with segregating F1 hybrid plants; type: in vivo; conditions: CTP A
Procedure: Ten unique engineered proteins optimized for activity at higher temperatures were selected for maize transformation and analysis in plants. DNA constructs were produced for expressing these engineered proteins with codon usage optimized for monocot expression using methods known to those skilled in the art. Enhancers, promoters, leaders, introns, CTPs, and 3′UTRs were tested in various combinations with the engineered proteins in these DNA constructs. The DNA constructs were used to transform immature maize (LH244) embryos with these vectors using Agrobacterium tumifaciens and standard methods known in the art. Regenerated R0 transgenic plantlets were grown in the green house.
Transgenic R0 maize plants were screened by the application of quizalofop-P (2×) plus 2,4-D (2×) at 7 to 10 days following transplant into plugs (generally corresponding to V3-V4 growth stage). All constructs tested produced plants containing unique events that passed the RO screen. The R0 plants were selfed to generate R1 homozygous seed and the R0 was also used as the male to cross with inbred plants containing maize event MON89034 to generate segregating F1 hybrid seed for efficacy field trials.
An efficacy field trial was conducted with segregating F1 hybrid plants, with 50% hemizygous and 50% null for the transgene. Tolerance to quizalofop-P (2×) plus 2,4-D (2×) was assessed using two herbicide application regimens: (1) quizalofop-P (Assure II) at 0.16 lb ai/acre (2×) plus 0.25% v/v non-ionic surfactant (NIS) applied at VE-V2 growth stage followed by the same at V4 growth stage followed by the same at V8 growth stage and (2) 2,4-D amine at 2 lb ae/acre (2×) plus quizalofop-P at 0.04 lb ai/acre (0.5×) plus 0.25% v/v NIS applied at VE-V2 growth stage followed by 2,4-D amine at 2 lb ae/acre (2×) plus 0.25% v/v NIS applied at V4 growth stage followed by the same at V8 growth stage. The 50% of the plants that were null for transgene were removed by the first quizalofop-P application at VE-V2 growth stage. Plots were visually rated 10-14 days after application for crop injury on a scale of 0 to 100 with “0” being none and “100” being complete crop destruction. […] The percentage injury rating with 2× application of 2,4-D at V8 growth stage ranged from a high of 40% to a low of 0. Similarly, the percentage injury rating with 2× application of quizalofop-P at V8 growth stage ranged from a high of 90% to a low of 0. Variation in injury rating between plants expressing the same protein is likely due to variations in construct design or transgene insertion location.

[3] = test system: F1 hybrid maize plants; assay: efficacy field trial for quizalofop-P tolerance and clethodim sensitivity; type: in vivo; conditions: scale 0 to 100
Procedure, shortened: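 F1 hybrids of MON89034 × R1 plants carrying MON-HT constructs, NK603×MON89034 control, at two sites. Quizalofop-P at 0.32, 0.64 or 1.28 lb ai/acre + 0.25% v/v NIS at VE-V2, V4 and V8; clethodim 0.25 lb ai/acre + NIS at V8. Injury rated visually 0–100 at 10-14 days after application.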

[4] = test system: F1 hybrid maize plants; assay: efficacy field trial for 2,4-D tolerance; type: in vivo; conditions: scale 0 to 100, with CTP unless label says no CTP
Procedure, shortened: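 F1 hybrid maize carrying MON89034 crossed with MON-HT events, NK603×MON89034 hybrids as control, grown at two field locations. 2,4-D amine at 2, 4, 8 or 16 lb ac/acre plus 0.25% v/v NIS applied at VE-V2, V4 and V8; plots visually rated for injury after V4 and V8 applications.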

[5] = 2,4-D amine 2× at VE-V2 (plus quizalofop-P 0.5×), V4, V8
[6] = quizalofop-P 2× at VE-V2, V4, V8
[7] = 0.32 lb ai/acre at VE-V2, V4, V8, with CTP unless label says no CTP
[8] = 0.64 lb ai/acre at VE-V2, V4, V8, with CTP unless label says no CTP
[9] = 1.28 lb ai/acre at VE-V2, V4, V8, with CTP unless label says no CTP

B1: MON-HT3: engineered oxygenase protein, amino acid sequence SEQ ID NO:22 (protein)
chain: MHAALSPLSQRFERIAVQPLTGVLGAEITGVDLREPLDDSTWNEILDAFHTYQVIYFPGQAITNEQHIAFSRRFGPVDPVPLLKSIEGYPEVQMIRREANESGRVIGDDWHTDSTFLDAPPAAVVMYAKEVPPYGGDTLFASMYTAWETLSPTMQATIEGLNVVHSATRVFGSLYQAQNRRFSNTSVKVMDVDAGDRETVHPLVVTHPETGRKGLYVNQVYCQRIEGMSEKESEPLLSFLFAHATKPEFTCRVRWQEGQVLVWDNLCTQHFAVPDYAGKFRYLTRTTVGGVRPAR
- maximum activities for all four substrates compared with the wild-type enzyme ([1]; haloxyfop, fenoxaprop, fluazifop and dichlorprop): lower than, or equal to
- maximum activity as a percentage of the wild-type enzyme's activity, Haloxyfop ([1]; purified enzyme, wild-type set at 100%): 67%
- maximum activity as a percentage of the wild-type enzyme's activity, Dichlorprop ([1]; wild-type set at 100%): 100%
- maximum activity as a percentage of the wild-type enzyme's activity, Fenoxaprop ([1]; wild-type set at 100%): 83%
- maximum activity as a percentage of the wild-type enzyme's activity, Fluazifop ([1]; wild-type set at 100%): 60%
- % Injury from V4 2,4-D [2, 5]: 21.7%
- % Injury from V8 2,4-D [2, 5]: 9.2%
- % Injury from V4 Quizalofop [2, 6]: 1.6%
- % Injury from V8 Quizalofop [2, 6]: 0.5%
- average injury rating, V4 Growth Stage, 4x Quizalofop [3, 7]: 0.8
- average injury rating, V8 Growth Stage, 4x Quizalofop [3, 7]: 2.5
- average injury rating, V4 Growth Stage, 8x Quizalofop [3, 8]: 0.0
- average injury rating, V8 Growth Stage, 8x Quizalofop [3, 8]: 2.0
- average injury rating, V4 Growth Stage, 16x Quizalofop [3, 9]: 4.3
- average injury rating, V8 Growth Stage, 16x Quizalofop [3, 9]: 6.0
- average injury rating, V8 Growth Stage, 1x Clethodim ([3]; clethodim 0.25 lb ai/acre at V8, volunteer control): 94.5
- average injury rating, V4 Growth Stage, 2x 2,4-D ([4]; 2 lb ae/acre at VE-V2, V4, V8): 3.8
- average injury rating, V8 Growth Stage, 2x 2,4-D ([4]; 2 lb ae/acre at VE-V2, V4, V8): 5.5
- average injury rating, V4 Growth Stage, 4x 2,4-D ([4]; 4 lb ae/acre at VE-V2, V4, V8): 6.3
- average injury rating, V8 Growth Stage, 4x 2,4-D ([4]; 4 lb ae/acre at VE-V2, V4, V8): 5.5
- average injury rating, V4 Growth Stage, 8x 2,4-D ([4]; 8 lb ae/acre at VE-V2, V4, V8): 8.8
- average injury rating, V8 Growth Stage, 8x 2,4-D ([4]; 8 lb ae/acre at VE-V2, V4, V8): 11.3
- average injury rating, V4 Growth Stage, 16x 2,4-D ([4]; 16 lb ae/acre at VE-V2, V4, V8): 11.3
- average injury rating, V8 Growth Stage, 16x 2,4-D ([4]; 16 lb ae/acre at VE-V2, V4, V8): 13.8
